Test system: 3T3-L1 preadipocytes
Assay: Differentiation of 3T3-L1 preadipocytes into mature adipocytes, lipid droplet formation by oil-red-O
Format: cell-based
Conditions: human rAIM used for AIM loading
Method: To examine the function of AIM produced by macrophage that infiltrated into adipose tissue on the surrounding adipocytes, an experiment was performed to load AIM in the culture process for differentiation of 3T3-L1 preadipocytes into mature adipocytes.
As AIM, recombinant AIM protein (rAIM) of mouse was used. rAIM was prepared by culturing human-derived HEK293T cells transfected with a vector expressing mouse AIM (pCAGGS-mAIM-HA plasmid) in a serum-free medium (FreeStyle™ 293 Expression Medium; Invitrogen). rAIM was purified from the culture supernatant thereof using an anti-HA antibody column. In other Reference Examples shown below, AIM used was a similar rAIM protein. AIM was loaded by adding AIM to a culture medium at a concentration of 5 μg/ml.
In addition, differentiation of 3T3-L1 cells was induced as shown in FIG. 13 by first proliferating 3T3-L1 cells by cultivating for 4 days (day(−2)-day 2), after which cultivating in a culture medium containing insulin, dexamethasone (DEX) and isobutylmethylxanthine (IBMX) for 2 days (day 2-day 4) to start differentiation induction stimulation, and further cultivating in a culture medium containing insulin for 2 days (day 4-day 6).
After the differentiation induction stimulation period (day 2-day 6), the cells were continuously cultured in a culture medium free of such differentiation induction stimulation factors. Then, the cells on day 10 day from the start of the differentiation induction stimulation (day 12) were stained with oil-red-O, and the state of differentiation of 3T3-L1 cells into mature adipocytes was observed.

B1: human rAIM: human AIM protein labeled with HA-tag produced in HEK293T cells (protein)
chain: SPSGVRLVGGLHRCEGRVEVEQKGQWGTVCDDGWDIKDVAVLCRELGCGAASGTPSGILYEPPAEKEQKVLIQSVSCTGTEDTLAQCEQEEVYDCSHDEDAGASCENPESSFSPVPEGVRLADGPGHCKGRVEVKHQNQWYTVCQTGWSLRAAKVVCRQLGCGRAVLTQKRCNKHAYGRKPIWLSQMSCSGREATLQDCPSGPWGKNTCNHDEDTWVECEDPFDLRLVGGDNLCSGRLEVLHKGVWGSVCDDNWGEKEDQVVCKQLGCGKSLSPSFRDRKCYGPGVGRIWLDNVRCSGEEQSLEQCQHRFWGFHDCTHQEDVAVICSG
modifications: left off: small tags and cut ends
notes: human AIM protein labeled with HA-tag produced in HEK293T cells
In the case of B1, the “differentiation of mouse-derived 3T3-L1 cells” value is reported as “similarly suppressed”.
